Tested on: proteins that co-immunoprecipitated with DUX4-CTD constructs expressed in MB135 myoblasts
Experiment: LC-MS of proteins co-immunoprecipitated with DUX4-CTD (Table 1) and western validation
Assay type: binding, human
Design: key to 4. mL1dL2 + Dox + IFNG / 4. + IFNG mix / 4. longCTD + Dox + IFNG / 3. + IFNg + Dox longCTD / 3. + Dox longCTD / 3. + IFNG longCTD: peptide-spectrum matches (PSMs) per protein
Conditions: kind of count not given; for 4. mL1dL2 + Dox + IFNG: LC-MS value per protein co-immunoprecipitated with DUX4-CTD construct mL1dL2 in MB135 myoblasts; for 4. + IFNG mix: LC-MS value per protein co-immunoprecipitated from MB135 myoblasts, + IFNG mix sample (no Dox)
Procedure, shortened: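 Two independent experiments compared uninduced, doxycycline and doxycycline+IFNG MB135iDUX4-CTD (plus MB135iDUX4mL1dL2) myoblasts. Anti-FLAG pulldowns (3 h, 4 °C) were eluted in LDS buffer for western validation or with FLAG peptide for trypsin digestion and Orbitrap LC-MS; hits needed ≥2 PSMs in both experiments, ranked by total PSMs.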

Molecule | 4. mL1dL2 + Dox + IFNG | 4. + IFNG mix
NCEH1 (protein) MRSSCVLLTALVALAAYYVYIPLPGSVSDPWKLMLLDATFRGAQQVSNLIHYLGLSHHLLALNFIIVSFGKKSAWSSAQVKVTDTDFDGVEVRVFEGPPKPEEPLKRSVVYIHGGGWALASAKIRYYDELCTAMAEELNAVIVSIEYRLVPKVYFPEQIHDVVRATKYFLKPEVLQKYMVDPGRICISGDSAGGNLAAALGQQFTQDASLKNKLKLQALIYPVLQALDFNTPSYQQNVNTPILPRYVMVKYWVDYFKGNYDFVQAMIVNNHTSLDVEEAAAVRARLNWTSLLPASFTKNYKPVVQTTGNARIVQELPQLLDARSAPLIADQAVLQLLPKTYILTCEHDVLRDDGIMYAKRLESAGVEVTLDHFEDGFHGCMIFTSWPTNFSVGIRTRNSYIKWLDQNL | 1 | 
IGKV2-40 (protein, UniProt A0A087WW87 20-121, looked up) Immunoglobulin kappa variable …: EDIVMTQTPLSLPVTPGEPASISCRSSQSLLDSDDGNTYLDWYLQKPGQSPQLLIYTLSYRASGVPDRFSGSGSGTDFTLKISRVEAEDVGVYYCMQRIEFP | 1 | 5
AHCYL1 (protein) SMPDAMPLPGVGEELKQAKEIEDAEKYSFMATVTKAPKKQIQFADDMQEFTKFPTKTGRRSLSRSISQSSTDSYSSAASYTDSSDDEVSPREKQQTNSKGSSNFCVKNIKQAEFGRREIEIAEQDMSALISLRKRAQGEKPLAGAKIVGCTHITAQTAVLIETLCALGAQCRWSACNIYSTQNEVAAALAEAGVAVFAWKGESEDDFWWCIDRCVNMDGWQANMILDDGGDLTHWVYKKYPNVFKKIRGIVEESVTGVHRLYQLSKAGKLCVPAMNVNDSVTKQKFDNLYCCRESILDGLKRTTDVMFGGKQVVVCGYGEVGKGCCAALKALGAIVYITEIDPICALQACMDGFRVVKLNEVIRQVDVVITCTGNKNVVTREHLDRMKNSCIVCNMGHSNTEIDVTSLRTPELTWERVRSQVDHVIWPDGKRVVLLAEGRLLNLSCSTVPTFVLSITATTQALALIELYNAPEGRYKQDVYLLPKKMDEYVASLHLPSFDAHLTELTDDQAKYLGLNKNGPFKPNYYRY | 1 | 
ATP2B1 (protein) GDMANNSVAYSGVKNSLKEANHDGDFGITLAELRALMELRSTDALRKIQESYGDVYGICTKLKTSPNEGLSGNPADLERREAVFGKNFIPPKKPKTFLQLVWEALQDVTLIILEIAAIVSLGLSFYQPPEGDNALCGEVSVGEEEGEGETGWIEGAAILLSVVCVVLVTAFNDWSKEKQFRGLQSRIEQEQKFTVIRGGQVIQIPVADITVGDIAQVKYGDLLPADGILIQGNDLKIDESSLTGESDHVKKSLDKDPLLLSGTHVMEGSGRMVVTAVGVNSQTGIIFTLLGAGGEEEEKKDEKKKEKKNKKQDGAIENRNKAKAQDGAAMEMQPLKSEEGGDGDEKDKKKANLPKKEKSVLQGKLTKLAVQIGKAGLLMSAITVIILVLYFVIDTFWVQKRPWLAECTPIYIQYFVKFFIIGVTVLVVAVPEGLPLAVTISLAYSVKKMMKDNNLVRHLDACETMGNATAICSDKTGTLTMNRMTVVQAYINEKHYKKVPEPEAIPPNILSYLVTGISVNCAYTSKILPPEKEGGLPRHVGNKTECALLGLLLDLKRDYQDVRNEIPEEALYKVYTFNSVRKSMSTVLKNSDGSYRIFSKGASEIILKKCFKILSANGEAKVFRPRDRDDIVKTVIEPMASEGLRTICLAFRDFPAGEPEPEWDNENDIVTGLTCIAVVGIEDPVRPEVPDAIKKCQRAGITVRMVTGDNINTARAIATKCGILHPGEDFLCLEGKDFNRRIRNEKGEIEQERIDKIWPKLRVLARSSPTDKHTLVKGIIDSTVSDQRQVVAVTGDGTNDGPALKKADVGFAMGIAGTDVAKEASDIILTDDNFTSIVKAVMWGRNVYDSISKFLQFQLTVNVVAVIVAFTGACITQDSPLKAVQMLWVNLIMDTLASLALATEPPTESLLLRKPYGRNKPLISRTMMKNILGHAFYQLVVVFTLLFAGEKFFDIDSGRNAPLHAPPSEHYTIVFNTFVLMQLFNEINARKIHGERNVFEGIFNNAIFCTIVLGTFVVQIIIVQFGGKPFSCSELSIEQWLWSIFLGMGTLLWGQLISTIPTSRLKFLKEAGHGTQKEEIPEEELAEDVEEIDHAERELRRGQILWFRGLNRIQTQIRVVNAFRSSLYEGLEKPESRSSIHNFMTHPEFRIEDSEPHIPLIDDTDAEDDAPTKRNSSPPPSPNKNNNAVDSGIHLTIEMNKSATSSSPGSPLHSLETSL | 11 | 10
ATP5F1A (protein) QKTGTAEMSSILEERILGADTSVDLEETGRVLSIGDGIARVHGLRNVQAEEMVEFSSGLKGMSLNLEPDNVGVVVFGNDKLIKEGDIVKRTGAIVDVPVGEELLGRVVDALGNAIDGKGPIGSKTRRRVGLKAPGIIPRISVREPMQTGIKAVDSLVPIGRGQRELIIGDRQTGKTSIAIDTIINQKRFNDGSDEKKKLYCIYVAIGQKRSTVAQLVKRLTDADAMKYTIVVSATASDAAPLQYLAPYSGCSMGEYFRDNGKHALIIYDDLSKQAVAYRQMSLLLRRPPGREAYPGDVFYLHSRLLERAAKMNDAFGGGSLTALPVIETQAGDVSAYIPTNVISITDGQIFLETELFYKGIRPAINVGLSVSRVGSAAQTRAMKQVAGTMKLELAQYREVAAFAQFGSDLDAATQQLLSRGVRLTELLKQGQYSPMAIEEQVAVIYAGVRGYLDKLEPSKITKFENAFLSHVVSQHQALLGTIRADGKISEQSDAKLKEIVTNFLAGFEA | 4 | 6
PLOD2 (protein) ADSEKPSSIPTDKLLVITVATKESDGFHRFMQSAKYFNYTVKVLGQGEEWRGGDGINSIGGGQKVRLMKEVMEHYADQDDLVVMFTECFDVIFAGGPEEVLKKFQKANHKVVFAADGILWPDKRLADKYPVVHIGKRYLNSGGFIGYAPYVNRIVQQWNLQDNDDDQLFYTKVYIDPLKREAINITLDHKCKIFQTLNGAVDEVVLKFENGKARAKNTFYETLPVAINGNGPTKILLNYFGNYVPNSWTQDNGCTLCEFDTVDLSAVDVHPNVSIGVFIEQPTPFLPRFLDILLTLDYPKEALKLFIHNKEVYHEKDIKVFFDKAKHEIKTIKIVGPEENLSQAEARNMGMDFCRQDEKCDYYFSVDADVVLTNPRTLKILIEQNRKIIAPLVTRHGKLWSNFWGALSPDGYYARSEDYVDIVQGNRVGVWNVPYMANVYLIKGKTLRSEMNERNYFVRDKLDPDMALCRNAREMGVFMYISNRHEFGRLLSTANYNTSHYNNDLWQIFENPVDWKEKYINRDYSKIFTENIVEQPCPDVFWFPIFSEKACDELVEEMEHYGKWSGGKHHDSRISGGYENVPTDDIHMKQVDLENVWLHFIREFIAPVTLKVFAGYYTKGFALLNFVVKYSPERQRSLRPHHDASTFTINIALNNVGEDFQGGGCKFLRYNCSIESPRKGWSFMHPGRLTHLHEGLPVKNGTRYIAVSFIDP | 8 | 7
JSRP1 (protein) MSMTTRAWEELDGGLGSCQALEDHSALAETQEDRASATPRLADSGSVPHDSQVAEGPSVDTRPKKMEKEPAARGTPGTGKERLKAGASPRSVPARKKAQTAPPLQPPPPPPALSEELPWGDLSLNKCLVLASLVALLGSAFQLCRDAVPGEAALQARVPEPWVPPSSAPREPSSPLPKFEAQAPPSAPPAPRAEAEVRPKIPGSREAAENDEEEPGEATGEAVREDRVTLADRGPKERPRREGKPRKEKPRKEERPKKERPRKEERPRAAREPREALPQRWESREGGHRPWARDSRDAEPRKKQAWVSPRRPDEEQRPGSRQKLRAGKGRD | 1 | 
AP2M1 (protein) MIGGLFIYNHKGEVLISRVYRDDIGSRQAADSAVFSSSGPFPGEWLEANRRNAVDAFRVNVIHARQQVRSPVTNIARTSFFHVKRSNIWLAAVTKQNVNAAMVFEFLYKMCDVMAAYFGKISEENIKNNFVLIYELLDEILDFGYPQNSETGALKTFITQQGIKSQHQTKEEQSQITSQVTGQIGWRREGIKYRRNELFLDVLESVNLLMSPQGQVLSAHVSGRVVMKSYLSGMPECKFGMNDKIVIEKQGKGTADETSKSGKQSIAIDDCTFHQCVRLSKFDSERSISFIPPDGEFELMRYRTTKDIILPFRVIPLVREVGRTKLEVKVVIKSNFKPSLLAQKIEVRIPTPLNTSGVQVICMKGKAKYKASENAIVWKIKRMAGMKESQISAEIELLPTNDKKKWARPPISMNFEVPFAPSGLKVRYLKVFEPKLNYSDHDVIKWVRYIGRSGIYETRC | 1 | 
GNAI2 (protein) GCTVSAEDKAAAERSKMIDKNLREDGEKAAREVKLLLLGAGESGKSTIVKQMKIIHEDGYSEEECRQYRAVVYSNTIQSIMAIVKAMGNLQIDFADPSRADDARQLFALSCTAEEQGVLPDDLSGVIRRLWADHGVQACFGRSREYQLNDSAAYYLNDLERIAQSDYIPTQQDVLRTRVKTTGIVETHFTFKDLHFKMFDVGGQRSERKKWIHCFEGVTAIIFCVALSAYDLVLAEDEEMNRMHESMKLFDSICNNKWFTDTSIILFLNKKDLFEEKITHSPLTICFPEYTGANKYDEAASYIQSKFEDLNKRKDTKEIYTHFTCATDTKNVQFVFDAVTDVIIKNNLKDCGLF | 10 | 7
RBBP7 (protein) ASKEMFEDTVEERVINEEYKIWKKNTPFLYDLVMTHALQWPSLTVQWLPEVTKPEGKDYALHWLVLGTHTSDEQNHLVVARVHIPNDDAQFDASHCDSDKGEFGGFGSVTGKIECEIKINHEGEVNRARYMPQNPHIIATKTPSSDVLVFDYTKHPAKPDPSGECNPDLRLRGHQKEGYGLSWNSNLSGHLLSASDDHTVCLWDINAGPKEGKIVDAKAIFTGHSAVVEDVAWHLLHESLFGSVADDQKLMIWDTRSNTTSKPSHLVDAHTAEVNCLSFNPYSEFILATGSADKTVALWDLRNLKLKLHTFESHKDEIFQVHWSPHNETILASSGTDRRLNVWDLSKIGEEQSAEDAEDGPPELLFIHGGHTAKISDFSWNPNEPWVICSVSEDNIMQIWQMAENIYNDEESDVTTSELEGQGS | 16 | 

Reference: US20250339531A1, “DUX4 POLYPEPTIDES AND NUCLEIC ACIDS FOR TREATING INFLAMMATORY AND AUTOIMMUNE CONDITIONS” (Fred Hutchinson Cancer Center, priority 2021, published 2025)
